In paper PMC3229523, “Identification of Lactoferricin B Intracellular Targets Using an Escherichia coli Proteome Chip” (PLoS ONE, 2011):
Ends that are not written are not given here. * marks the point of attachment. Biotin = O=C1N[C@H]2[C@H](CS[C@H]2CCCCC(=O)*)N1

How the values were obtained:
Assay in all cases: peptide or protein array; E. coli proteome chip: purified His-tagged proteins printed in duplicate on Fullmoon slides, blocked with 1% BSA; 10 nM N-terminal biotinylated LfcinB with 1% BSA, room temperature, 1 h; detected with DyLight 649-labeled streptavidin, ratio to DyLight 549-labeled anti-His antibody; ProCAT normalisation, local cut-off; triplicate chips
Conditions in all cases: both partners purified
RhaD = biological target: T1, RhaD (E. coli K-12, UniProt P32169 1-274)
T1 construct: RhaD, E. coli K-12
T1 sequence (looked up): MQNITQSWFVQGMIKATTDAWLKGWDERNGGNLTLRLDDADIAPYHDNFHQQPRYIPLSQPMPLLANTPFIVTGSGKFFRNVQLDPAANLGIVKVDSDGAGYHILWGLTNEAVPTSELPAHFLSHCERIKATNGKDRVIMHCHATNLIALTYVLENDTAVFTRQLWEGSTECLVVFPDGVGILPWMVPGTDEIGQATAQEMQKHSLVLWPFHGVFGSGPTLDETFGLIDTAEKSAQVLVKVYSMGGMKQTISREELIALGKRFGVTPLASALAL

NrdD = biological target: T2, NrdD (E. coli K-12, UniProt P28903 1-712)
T2 construct: NrdD, ribonucleotide reductase family, E. coli K-12
T2 sequence (looked up): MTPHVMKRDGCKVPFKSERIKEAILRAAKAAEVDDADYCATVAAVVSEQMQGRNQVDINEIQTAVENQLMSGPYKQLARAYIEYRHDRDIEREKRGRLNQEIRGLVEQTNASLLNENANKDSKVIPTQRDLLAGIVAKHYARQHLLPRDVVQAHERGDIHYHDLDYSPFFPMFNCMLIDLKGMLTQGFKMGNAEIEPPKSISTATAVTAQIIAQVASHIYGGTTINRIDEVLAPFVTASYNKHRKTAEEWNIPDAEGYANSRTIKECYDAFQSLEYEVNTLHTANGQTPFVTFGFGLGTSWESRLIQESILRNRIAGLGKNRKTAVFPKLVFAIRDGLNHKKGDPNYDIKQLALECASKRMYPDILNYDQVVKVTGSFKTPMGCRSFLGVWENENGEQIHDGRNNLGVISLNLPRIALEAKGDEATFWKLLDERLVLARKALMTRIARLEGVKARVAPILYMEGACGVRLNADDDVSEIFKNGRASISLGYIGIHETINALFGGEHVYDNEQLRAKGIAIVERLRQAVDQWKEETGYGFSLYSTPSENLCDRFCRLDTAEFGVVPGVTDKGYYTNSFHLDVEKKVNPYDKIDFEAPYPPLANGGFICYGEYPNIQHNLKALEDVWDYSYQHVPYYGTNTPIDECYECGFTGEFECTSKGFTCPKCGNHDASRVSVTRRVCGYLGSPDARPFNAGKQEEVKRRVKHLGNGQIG

YpdH = biological target: T3, YpdH (E. coli K-12, UniProt P69808 1-108)
T3 construct: YpdH, E. coli K-12
T3 sequence (looked up): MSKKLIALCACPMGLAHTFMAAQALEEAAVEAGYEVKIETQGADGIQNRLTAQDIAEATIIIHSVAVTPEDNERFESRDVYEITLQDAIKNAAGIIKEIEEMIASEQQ

Rob = biological target: T4, Rob (E. coli K-12, UniProt P0ACI0 1-289)
T4 construct: Rob, E. coli K-12
T4 sequence (looked up): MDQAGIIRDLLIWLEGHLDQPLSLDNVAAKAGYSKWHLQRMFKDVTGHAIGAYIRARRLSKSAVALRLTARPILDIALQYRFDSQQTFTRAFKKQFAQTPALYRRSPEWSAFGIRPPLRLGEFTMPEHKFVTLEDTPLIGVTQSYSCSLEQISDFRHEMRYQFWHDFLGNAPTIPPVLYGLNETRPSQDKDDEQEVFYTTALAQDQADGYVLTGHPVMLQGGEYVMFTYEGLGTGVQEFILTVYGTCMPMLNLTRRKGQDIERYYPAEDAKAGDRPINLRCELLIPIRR

YdaW = biological target: T5, YdaW (E. coli K-12, UniProt P76066 1-186)
T5 construct: YdaW, E. coli K-12
T5 sequence (looked up): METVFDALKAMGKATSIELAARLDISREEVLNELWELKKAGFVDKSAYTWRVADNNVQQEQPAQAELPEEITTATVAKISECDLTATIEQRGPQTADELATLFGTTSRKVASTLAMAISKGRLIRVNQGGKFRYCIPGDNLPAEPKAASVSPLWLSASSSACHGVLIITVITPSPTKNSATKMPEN

YcaO = biological target: T6, YcaO (E. coli K-12, UniProt P75838 1-586)
T6 construct: YcaO, E. coli K-12
T6 sequence (P75838 whole entry): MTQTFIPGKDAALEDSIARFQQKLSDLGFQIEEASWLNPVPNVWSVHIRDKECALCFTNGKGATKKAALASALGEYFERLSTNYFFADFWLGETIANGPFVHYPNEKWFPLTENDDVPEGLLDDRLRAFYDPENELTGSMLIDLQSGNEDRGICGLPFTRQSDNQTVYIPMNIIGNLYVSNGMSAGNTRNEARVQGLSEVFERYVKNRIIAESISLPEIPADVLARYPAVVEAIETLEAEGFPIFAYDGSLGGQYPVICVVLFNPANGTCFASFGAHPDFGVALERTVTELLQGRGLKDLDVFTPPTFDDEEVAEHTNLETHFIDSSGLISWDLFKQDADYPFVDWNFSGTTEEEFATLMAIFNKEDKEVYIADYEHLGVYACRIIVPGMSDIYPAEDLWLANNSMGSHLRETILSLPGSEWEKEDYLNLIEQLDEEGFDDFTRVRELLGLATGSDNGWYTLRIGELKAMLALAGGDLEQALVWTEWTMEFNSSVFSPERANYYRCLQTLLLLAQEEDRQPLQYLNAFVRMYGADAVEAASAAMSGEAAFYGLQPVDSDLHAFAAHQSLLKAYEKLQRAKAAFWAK

Measured: binding result

B1: N-terminal biotinylated Lactoferricin B (peptide, UniProt P24627 36-60, looked up)
peptide: Biotin-FKCRRWQWRMKKLGAPSITCVRRAF
modifications: ends and bridges not checked
notes: lactoferricin B (LfcinB), cationic antimicrobial peptide of 25 amino acids; also called biotinylated LfcinB; biotin-labeled LfcinB; source: bought: Kelowna Inc
binds: all assays above
